Measurements: the supplement of paper PMC9233669
Fewer inactive variants are shown than the library holds.

Assays:
[1] = test system: biotinyl-Phe-oxazolone; experiment: self-aminoacylation, catalytic enhancement (BFO) (fold over background); higher = more active; k-Seq, kA / k0A0; sequences stand for … in GGGAAUGGAUCCACAUCUACGAAUUC…UUCACUGCAGACUUGACGAAGCUG
Procedure, shortened: (§1)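 The uncatalyzed rate is the low-activity peak of a bimodal Gaussian fit, and catalytic enhancement is median kA divided by it. The kA values came from pseudo-first-order fits, with 1000 bootstraps, of per-sequence fraction reacted measured by streptavidin capture, triplicate qPCR and Illumina sequencing. Mutagenized RNA pools with a 21-nt variable region (0.43 μM) were reacted with each biotinyl-aminoacyl-oxazolone at 2–1250 μM in 50 μL HEPES/NaCl/KCl/MgCl2/CaCl2 buffer with 5% acetonitrile, pH 6.9–7.0, for 90 minutes at room temperature.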

[2] = test system: biotinyl-Ile-oxazolone; experiment: self-aminoacylation, catalytic enhancement (BIO) (fold over background); higher = more active; k-Seq, kA / k0A0; sequences stand for … in GGGAAUGGAUCCACAUCUACGAAUUC…UUCACUGCAGACUUGACGAAGCUG
Procedure, shortened: as §1

[3] = test system: biotinyl-Trp-oxazolone; experiment: self-aminoacylation, catalytic enhancement (BWO) (fold over background); higher = more active; k-Seq, kA / k0A0; sequences stand for … in GGGAAUGGAUCCACAUCUACGAAUUC…UUCACUGCAGACUUGACGAAGCUG
Procedure, shortened: as §1

[4] = test system: biotinyl-Val-oxazolone; experiment: self-aminoacylation, catalytic enhancement (BVO) (fold over background); higher = more active; k-Seq, kA / k0A0; sequences stand for … in GGGAAUGGAUCCACAUCUACGAAUUC…UUCACUGCAGACUUGACGAAGCUG
Procedure, shortened: as §1

[5] = test system: biotinyl-Leu-oxazolone; experiment: self-aminoacylation, catalytic enhancement (BLO) (fold over background); higher = more active; k-Seq, kA / k0A0; sequences stand for … in GGGAAUGGAUCCACAUCUACGAAUUC…UUCACUGCAGACUUGACGAAGCUG
Procedure, shortened: as §1

[6] = test system: biotinyl-Met-oxazolone; experiment: self-aminoacylation, catalytic enhancement (BMO) (fold over background); higher = more active; k-Seq, kA / k0A0; sequences stand for … in GGGAAUGGAUCCACAUCUACGAAUUC…UUCACUGCAGACUUGACGAAGCUG
Procedure, shortened: as §1

Sequence	self-aminoacylation [1]	self-aminoacylation [2]	self-aminoacylation [3]	self-aminoacylation [4]	self-aminoacylation [5]	self-aminoacylation [6]
GAGUUUGCUAAUAGUCGCAAG [Fam3.1 aminoacylation ribozyme variant]	22.7	1.72	7.44	1.5	1.39	1.78
AUUAGCCUGGUCAUCGAGUGA [Fam2.1 aminoacylation ribozyme variant]	21.7	4.61	9.2	4.55	7.65	7.22
AUUACCCUGGUCAUCAAGCGA [Fam2.1 aminoacylation ribozyme variant]	0.84	0.846	0.661	1.13	0.895	1
AAGGUUGCUAAUAGUCGCAAU [Fam3.1 aminoacylation ribozyme variant]	3.18	1.99	1.61	1.46	1.68	1.81
AUUACCCUAGUCAUCGAGUCA [Fam2.1 aminoacylation ribozyme variant]	0.47	0.724	0.546	0.893	0.674	0.631
CUUCUUCAAACAAUCGGUCUC [Fam1A.1 aminoacylation ribozyme variant]	28.6	0.814	13.6	0.874	1.08	0.773
GUUCCCCUGGUCAUCGAGUGA [Fam2.1 aminoacylation ribozyme variant]	43.4	3.35	7.5	3.82	6.48	5.84
AAGUUUGCGACUAGUCGCAAG [Fam3.1 aminoacylation ribozyme variant]	2.33	1.78	1.67	1.34	1.34	1.73
CAACUUCGAACAAUCGGUCUG [Fam1A.1 aminoacylation ribozyme variant]	2.22	1.21	2.15	1.15	0.999	1.1
AUUAACCGAGGUCAUCGGGUG [Fam2.2 aminoacylation ribozyme variant]	48.9	4.6	7.45	5.32	7.86	7.9
AUUCACCUCGGUCAUAGGGUG [Fam2.2 aminoacylation ribozyme variant]	5.66	1.11	1.43	1.19	1.76	1.41
CUACACUUCAAGCAAUCGGCC [Fam1B.1 aminoacylation ribozyme variant]	6.22	1.82	5.03	1.75	2.41	1.69
CCACACUUCGAGCAAUCGGUG [Fam1B.1 aminoacylation ribozyme variant]	15.2	1.62	2.07	1.91	3.3	2.48
CUAAUUCAAACAGUCGGUCUG [Fam1A.1 aminoacylation ribozyme variant]	0.62	0.839	0.523	0.853	0.915	0.731
CUACAUCAAACAAUCGGCCUG [Fam1A.1 aminoacylation ribozyme variant]	2.89	1.25	2.21	1.25	1.41	1.35
CGACUUCAAACAAUCUGUCUG [Fam1A.1 aminoacylation ribozyme variant]	3.02	0.926	1.84	0.86	0.664	0.815
AUUACUCCGGUCAUCGAGUGA [Fam2.1 aminoacylation ribozyme variant]	16	2.81	5.76	2.64	5.43	5.22
AAGUACGCUAAUAGUCGCAAG [Fam3.1 aminoacylation ribozyme variant]	6.76	1.94	3.1	1.8	2.38	1.59
AAUUUUGCUAAUAGUAGCAAG [Fam3.1 aminoacylation ribozyme variant]	1.11	1.41	0.996	1.37	1.75	1.31
CUACUUGUAACAAUCGGUCUG [Fam1A.1 aminoacylation ribozyme variant]	0.824	0.651	0.573	0.658	0.678	0.806
CCACACUUCAACCAAUCGUUC [Fam1B.1 aminoacylation ribozyme variant]	1.28	0.674	0.778	0.636	0.562	0.634
CUACAUCAAACCAUCGGUCUG [Fam1A.1 aminoacylation ribozyme variant]	1.04	0.834	0.6	0.932	0.889	0.791
CCACAUUUCAAGCUAUCGGUC [Fam1B.1 aminoacylation ribozyme variant]	1.03	1.4	1.03	1.33	1.16	1.1
AUUACCCUCGUCAUCGGGUGA [Fam2.1 aminoacylation ribozyme variant]	24.1	2.39	3.81	2.77	4.5	3.84
CUACUUCACACAACCGGUCUG [Fam1A.1 aminoacylation ribozyme variant]	1.07	0.858	0.778	1.01	0.892	1.2
CUACUUCCACCAAUCGGUCUG [Fam1A.1 aminoacylation ribozyme variant]	0.84	0.912	0.387	0.877	0.793	0.684

Sequence	self-aminoacylation [1]	self-aminoacylation [2]	self-aminoacylation [3]	self-aminoacylation [4]	self-aminoacylation [5]	self-aminoacylation [6]
CUACUUCAAACAAUCAGCCUG [Fam1A.1 aminoacylation ribozyme variant]	21	0.99	9.56	1.17	1.01	0.824
AUUCACCUAGGUAAUCGGUUG [Fam2.2 aminoacylation ribozyme variant]	0.536	0.71	0.967	0.687	0.91	0.735
AUUCACCCAGGUCAUCGGCUG [Fam2.2 aminoacylation ribozyme variant]	6.8	1.99	1.41	2	1.85	1.62
AUUCAGCUAGGUUAUCGGGUG [Fam2.2 aminoacylation ribozyme variant]	60.4	5.01	8.86	5.16	9.36	7.59
AUUAUCCUGGUCAUGGAGUGA [Fam2.1 aminoacylation ribozyme variant]	13.6	2.67	5.21	2.6	4.6	4.22
CUACUUCAAGCUAUCGGUCUG [Fam1A.1 aminoacylation ribozyme variant]	0.617	0.839	0.43	0.892	0.689	0.942
AUUACCCUAGACAUCGAGUGA [Fam2.1 aminoacylation ribozyme variant]	37	3.77	9.09	4.07	7.96	8.71
AGGCUUGCUAAUAGUCGCAAG [Fam3.1 aminoacylation ribozyme variant]	3.69	2.17	2.08	1.96	2.31	2.14
ACGUUUGCUAACAGUCGCAAG [Fam3.1 aminoacylation ribozyme variant]	4.28	1.5	1.94	1.29	1.97	1.53
UUACUUCAAAAAAUCGGUCUG [Fam1A.1 aminoacylation ribozyme variant]	7.17	1.44	5.65	0.984	1.29	1.22
AAGUCUGCUAAUAGUCGCAAC [Fam3.1 aminoacylation ribozyme variant]	1.39	1.03	0.655	1.06	1.39	1.04
AAGUUUGCUAAUAGCCGCAUG [Fam3.1 aminoacylation ribozyme variant]	2	1.07	1.54	1.1	1.19	1.12
GUGACCCUGGUCAUCGAGUGA [Fam2.1 aminoacylation ribozyme variant]	144	7.41	17.8	7.42	19.6	21.7
AUUCACCUGGGUCAUGGGGUG [Fam2.2 aminoacylation ribozyme variant]	51.6	4.05	6.16	4.9	9.15	6.65
AUACUGCAAACAAUCGGUCUG [Fam1A.1 aminoacylation ribozyme variant]	2.49	1.08	1.44	1.05	1.18	1.09
CCACAAUUCAAGCCAUCGGUC [Fam1B.1 aminoacylation ribozyme variant]	1.19	1.46	1.3	1.7	1.59	1.47
ACUACCCUGGUCGUCGAGUGA [Fam2.1 aminoacylation ribozyme variant]	6.66	1.17	0.701	1.19	1.95	1.49
CUACUUCAAACAAUCGGACAG [Fam1A.1 aminoacylation ribozyme variant]	1.19	0.782	0.656	0.709	0.672	0.718
AUUACCCUGGUAAUCGAGUGA [Fam2.1 aminoacylation ribozyme variant]	54.5	3.7	9.96	3.82	8.46	8.63
CCACACUUCAAGCGAGCGGUC [Fam1B.1 aminoacylation ribozyme variant]	0.929	0.983	0.744	1.11	0.93	0.603
CCGCACUUCACGCAAUCGGUC [Fam1B.1 aminoacylation ribozyme variant]	1.66	1.36	1.85	2.1	2.34	1.54
AUUCACCUAGGUAAUAGGGUG [Fam2.2 aminoacylation ribozyme variant]	22	2.7	4.25	2.43	5.63	4.95
UUUCACCUAGGUCAUCGGGAG [Fam2.2 aminoacylation ribozyme variant]	1.4	1.68	2.02	1.35	1.82	1.73
AUUACCCUGGUCAUCAAGUGA [Fam2.1 aminoacylation ribozyme variant]	4.11	1.51	2.87	1.79	2.25	2.31
AUAACCCUGGACAUCGAGUGA [Fam2.1 aminoacylation ribozyme variant]	28.8	3.02	5.65	2.47	6.63	6.69
